Legend:
Test in all cases: SPR; BIACORE 2000; biotinylated ligand on a streptavidin-modified CM5 chip (about 200 RU); receptor ectodomain as analyte at 1, 2, 3, 5, 10, 20 and 50 uM; HBS500 (10 mM HEPES pH 7.4, 500 mM NaCl, 3.4 mM EDTA, 0.005% P20); apparent KD from the dose dependence of equilibrium binding
BMP-2 S85R/A86P = biological target: BMP-2 S85R/A86P
BMP-2 N102D = biological target: BMP-2 N102D
BMP-2 L100K = biological target: BMP-2 L100K
BMP-2 A86P = biological target: BMP-2 A86P
[1] = biological target: BMP-2 variant L100K/N102D
BMP-2 S85R = biological target: BMP-2 S85R

Substance: ActR-II receptor ectodomain (from UniProt P27037 20-135)
- rel. KD (against wildtype BMP-2 from E. coli with the same receptor) (BMP-2 S85R/A86P): 1.3 fold
- rel. KD (against wildtype BMP-2 from E. coli with the same receptor) (BMP-2 N102D): 3.6 fold
- rel. KD (against wildtype BMP-2 from E. coli with the same receptor) (BMP-2 L100K): 0.84 fold
- rel. KD (against wildtype BMP-2 from E. coli with the same receptor) (BMP-2 A86P): 1.5 fold
- rel. KD (against wildtype BMP-2 from E. coli with the same receptor) [1]: 0.29 fold
- rel. KD (against wildtype BMP-2 from E. coli with the same receptor) (BMP-2 S85R): 0.85 fold

— publication PMC1802081
